{"source": "paper PMC8937303", "about": "(Molecular Cell, 2022)", "binders": {"B1": {"name": "pFGFR2C58 (domain or fragment, UniProt P21802 764-821, looked up)", "chain": "TTNEEYLDLSQPLEQYSPSYPDTRSSCSSGDDSVFSPDPMPYEPCLPQYPHINGSVKT", "modifications": "tyrosine phosphorylated in vitro (sites not printed for the preparation)"}, "B2": {"name": "GST-pC58 (domain or fragment, UniProt P21802 763-821, looked up)", "chain": "LTTNEEYLDLSQPLEQYSPSYPDTRSSCSSGDDSVFSPDPMPYEPCLPQYPHINGSVKT", "modifications": "tyrosine phosphorylated in vitro"}, "B3": {"name": "pFGFR2_(Cyto) (domain or fragment, UniProt P21802 400-821, looked up)", "chain": "MKNTTKKPDFSSQPAVHKLTKRIPLRRQVTVSAESSSSMNSNTPLVRITTRLSSTADTPMLAGVSEYELPEDPKWEFPRDKLTLGKPLGEGCFGQVVMAEAVGIDKDKPKEAVTVAVKMLKDDATEKDLSDLVSEMEMMKMIGKHKNIINLLGACTQDGPLYVIVEYASKGNLREYLRARRPPGMEYSYDINRVPEEQMTFKDLVSCTYQLARGMEYLASQKCIHRDLAARNVLVTENNVMKIADFGLARDINNIDYYKKTTNGRLPVKWMAPEALFDRVYTHQSDVWSFGVLMWEIFTLGGSPYPGIPVEELFKLLKEGHRMDKPANCTNELYMMMRDCWHAVPSQRPTFKQLVEDLDRILTLTTNEEYLDLSQPLEQYSPSYPDTRSSCSSGDDSVFSPDPMPYEPCLPQYPHINGSVKT", "modifications": "tyrosine phosphorylated in vitro (sites not printed for the preparation)"}}, "key": {"[1]": {"target": "T1, SHP2_(2SH2) (UniProt Q06124 1-221)", "T1 sequence (looked up)": "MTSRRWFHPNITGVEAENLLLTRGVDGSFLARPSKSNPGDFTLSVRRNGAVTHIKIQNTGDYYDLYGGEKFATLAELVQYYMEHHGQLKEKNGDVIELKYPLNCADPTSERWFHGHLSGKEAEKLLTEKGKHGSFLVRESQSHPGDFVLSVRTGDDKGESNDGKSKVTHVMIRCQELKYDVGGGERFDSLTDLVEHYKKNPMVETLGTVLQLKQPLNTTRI", "experiment": "ITC"}, "[2]": {"target": "T1, SHP2_(2SH2)", "experiment": "pull-down"}, "[3]": {"target": "T2, GST-SHP2 (UniProt Q06124 1-593)", "T2 sequence (looked up)": "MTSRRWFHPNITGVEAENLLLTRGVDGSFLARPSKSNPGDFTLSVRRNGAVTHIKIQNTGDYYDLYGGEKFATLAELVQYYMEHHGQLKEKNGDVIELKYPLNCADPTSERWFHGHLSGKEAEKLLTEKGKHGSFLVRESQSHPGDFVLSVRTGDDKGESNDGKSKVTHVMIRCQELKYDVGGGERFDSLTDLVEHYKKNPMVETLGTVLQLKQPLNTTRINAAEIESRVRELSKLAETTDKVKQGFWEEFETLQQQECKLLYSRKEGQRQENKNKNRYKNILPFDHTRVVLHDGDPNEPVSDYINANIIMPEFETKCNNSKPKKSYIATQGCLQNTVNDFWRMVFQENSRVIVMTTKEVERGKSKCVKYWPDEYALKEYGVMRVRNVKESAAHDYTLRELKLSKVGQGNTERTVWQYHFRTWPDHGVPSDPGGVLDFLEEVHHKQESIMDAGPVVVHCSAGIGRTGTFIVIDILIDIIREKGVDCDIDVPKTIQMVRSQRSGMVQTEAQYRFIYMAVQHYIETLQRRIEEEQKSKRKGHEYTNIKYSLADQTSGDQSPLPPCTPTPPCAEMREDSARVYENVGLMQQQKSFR", "experiment": "pull-down"}}}
{"binder": "B1", "values": [{"measurement": "Kd", "setting": "[1]", "result": "~8", "unit": "µM"}, {"measurement": "stoichiometry N", "setting": "[1]", "result": 1}]}
{"binder": "B2", "values": [{"measurement": "binding result", "setting": "[2]", "result": "binds"}]}
{"binder": "B3", "values": [{"measurement": "binding result", "setting": "[3]", "result": "binds"}]}
